Results on six molecules are retold here after patent US20240174744A1 (SCIRHOM, published 2024).

In test [1] the target is T1, dog iRhom2 full length wild type, C-terminally tagged with 3 consecutive copies of the T7 epitope (dog, UniProt Q00M95 1-827).
T1 construct: whole, on cells; also called Dog-iR2-FL-WT-T7
T1 sequence: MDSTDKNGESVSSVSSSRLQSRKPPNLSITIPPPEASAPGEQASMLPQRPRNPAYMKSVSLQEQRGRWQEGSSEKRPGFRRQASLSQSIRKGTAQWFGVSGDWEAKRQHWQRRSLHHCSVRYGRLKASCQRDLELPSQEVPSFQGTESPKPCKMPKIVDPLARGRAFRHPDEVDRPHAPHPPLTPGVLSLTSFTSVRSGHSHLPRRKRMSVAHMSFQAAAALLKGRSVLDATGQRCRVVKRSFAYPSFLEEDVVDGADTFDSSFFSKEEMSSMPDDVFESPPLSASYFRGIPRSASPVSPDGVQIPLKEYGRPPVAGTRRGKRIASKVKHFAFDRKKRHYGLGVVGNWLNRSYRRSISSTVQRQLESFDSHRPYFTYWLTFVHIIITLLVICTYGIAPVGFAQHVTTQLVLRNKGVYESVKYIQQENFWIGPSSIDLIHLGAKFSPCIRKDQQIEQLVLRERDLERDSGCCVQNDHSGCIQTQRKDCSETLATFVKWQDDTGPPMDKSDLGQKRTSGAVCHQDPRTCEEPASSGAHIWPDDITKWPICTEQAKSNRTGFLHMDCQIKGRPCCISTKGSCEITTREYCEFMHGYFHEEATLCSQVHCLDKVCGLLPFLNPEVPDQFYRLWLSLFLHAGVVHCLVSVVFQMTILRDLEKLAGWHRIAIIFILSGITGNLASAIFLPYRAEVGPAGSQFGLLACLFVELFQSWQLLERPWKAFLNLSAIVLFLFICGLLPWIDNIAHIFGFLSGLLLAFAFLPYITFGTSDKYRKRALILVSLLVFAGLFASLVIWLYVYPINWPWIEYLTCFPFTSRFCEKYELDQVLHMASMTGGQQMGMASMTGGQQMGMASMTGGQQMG
As to the kind of experiment: FACS, MEF-DKO-Dog-iR2-FL-WT-T7 cells. As for the experimental part:
In brief, immortalized MEF-DKO-EV control cells, MEF-DKO-rhesus-iR2-FL-WT-T7 cells, MEF-DKO-cyno-iR2-FL-WT-T7 cells, MEF-DKO-dog-iR2-FL-WT-T7 cells and MEF-DKO-rabbit-iR2-FL-WT-T7 cells, as well as their respective iRhom1 counterparts, were harvested with 10 mM EDTA in PBS, washed and resuspended in FACS buffer (PBS, 3% FBS, 0.05% sodium azide), and seeded in Nunc U-bottom 96-well plates (Thermo Fisher Scientific, USA) at approximately 3×10⁵ cells per well. To pellet cells and remove supernatants, the plates were centrifuged at 1,500 rpm and 4° C. for 3 minutes. For primary staining, cells were resuspended in 100 μl per well of either FACS buffer alone (controls), mouse monoclonal anti-T7 IgG (Merck Millipore, USA) at 3 μg/ml FACS buffer or the antibodies of the present disclosure also at 3 μg/ml FACS buffer and incubated on ice for 1 hour. Afterwards, plates were centrifuged at 1,500 rpm and 4° C. for 3 minutes and washed twice with 200 μl per well of FACS buffer. For secondary staining, cells were spun down and resuspended in 100 μl per well of PE-conjugated goat anti-mouse IgG F(ab′)2 detection fragment (Dianova, Germany) diluted 1:100 in FACS buffer. Protected from light, the cell suspensions were incubated on ice for 1 hour. Plates were then centrifuged at 1,500 rpm and 4° C. for 3 minutes and washed three times with 200 μl per well of FACS buffer. Finally, cells were resuspended in 150 μl per well of FACS buffer and analyzed using a BD Accuri™ C6 Plus flow cytometer (Becton Dickinson, Germany).

For test [2], the target named is T2, human iRhom2 (inactive rhomboid protein 2, isoform 1), endogenously expressed on human cells (human, UniProt Q6PJF5 1-856).
T2 sequence: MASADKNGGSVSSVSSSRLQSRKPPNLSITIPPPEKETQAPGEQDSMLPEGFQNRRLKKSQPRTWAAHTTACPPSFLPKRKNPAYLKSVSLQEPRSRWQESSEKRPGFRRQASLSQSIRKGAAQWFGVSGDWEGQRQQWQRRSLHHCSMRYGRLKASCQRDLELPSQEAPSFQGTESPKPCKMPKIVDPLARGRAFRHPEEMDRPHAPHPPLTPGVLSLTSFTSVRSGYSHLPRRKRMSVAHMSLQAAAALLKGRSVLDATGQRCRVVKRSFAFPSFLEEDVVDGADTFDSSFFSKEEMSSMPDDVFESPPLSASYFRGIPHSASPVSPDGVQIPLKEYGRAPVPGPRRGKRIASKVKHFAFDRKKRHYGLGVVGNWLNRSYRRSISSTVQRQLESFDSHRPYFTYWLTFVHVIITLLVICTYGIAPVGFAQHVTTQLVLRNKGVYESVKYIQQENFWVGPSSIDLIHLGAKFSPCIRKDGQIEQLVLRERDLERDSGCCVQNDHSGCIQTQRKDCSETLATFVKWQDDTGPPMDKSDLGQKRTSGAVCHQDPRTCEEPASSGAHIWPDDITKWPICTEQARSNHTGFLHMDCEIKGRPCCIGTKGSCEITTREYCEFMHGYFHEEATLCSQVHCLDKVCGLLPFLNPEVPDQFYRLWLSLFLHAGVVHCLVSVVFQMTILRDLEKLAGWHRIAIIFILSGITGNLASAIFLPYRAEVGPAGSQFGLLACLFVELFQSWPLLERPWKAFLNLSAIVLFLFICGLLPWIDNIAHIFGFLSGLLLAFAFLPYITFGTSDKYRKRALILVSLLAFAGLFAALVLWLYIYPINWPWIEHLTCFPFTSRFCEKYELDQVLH
Briefly: cell-based or functional assay.

Where a chain is given by its changes, count along the chain named.

B1: antibody 46 (antibody, V domains shown)
VH: QVTLKESGPGILQPSQTLSLTCSFSGFSLSTFGMGVGWIRQPSGKGLEWLAHIWWDDDNYYNQALKSRLTISKDNTKNQVFLNIANVDTADTATYYCARIRSYDYDVRYAMDYWGQGTSVTVSS
VL: DIKMTQSPSSMYASLRERVTITCKASQDINSYLSWFQQKPGKSPKTLIYRANRLVDGVPSRFSGSGSGQDYSLTISSLEYEDLGIYYCQQYYEFPLTFGAGTRLELK
notes: Mouse IgG, kappa light chain; also called clone #46
Take B1: in test [1], the binding result is “binds”. The “inhibition of LPS-induced release of TNFα from THP-1 cells, recombinant antibody” value (“inhibition … recombinant antibody” for short) in test [2] stood at 36.1 % inhibition.

B2: antibody 57 (antibody, V domains shown)
VH: QVTLKESGPGILQPSQTLSLTCSFSGFSLSTFGMGVGWIRQPSGKGLEWLAHIWWDDDKYYNPALKSRLTISKDTSKNQIFLKIANVDTADSATFYCARIENYGSNYWYFDVWGTGTTVTVSS
VL: QIVLTQSPAIMSASPGEKVTMTCSASSSVSYMYWYQQKPGSSPRVLIYDTSNLASGVPVRFSGSGSGTSYSLTVSRMEAEDAATYYCQQWNSYPLTFGAGTKLELK
notes: Mouse IgG, kappa light chain; also called clone #57
Turning to B2, the binding result in test [1] was “binds”. In addition, in test [2], the “inhibition … recombinant antibody” value came out at 59.7 % inhibition.

B3: antibody 54 (antibody, V domains shown)
VH: B2 VH with M34L, W49C, Y61S, I80V, T89S, S92T, F95Y, Y96F, E101L
VL: B2 VL with I10L, V29I, V45L, Y70F
notes: Mouse IgG, kappa light chain; also called clone #54
As to B3, the binding result in test [1] is “binds”. The “inhibition … recombinant antibody” value in test [2] was 67.9 % inhibition.

B4: antibody 56 (antibody, V domains shown)
VH: B2 VH with A51T, H52N, P63S, A64V, I80V, S92T, F95Y, E101A, N102A
VL: B2 VL with A54S, V74I, N91S
notes: Mouse IgG, kappa light chain; also called clone #56
With B4, in test [1], the binding result was “binds”. Besides, the “inhibition … recombinant antibody” value in test [2] was found to be 65.8 % inhibition.

B5: antibody 49 (antibody, V domains shown)
VH: B2 VH with K66Q, I71V, S76A, I80V, S92T, T94I, F95Y, I100V, E101G, D111A
VL: B2 VL with V45L, V74I
notes: Mouse IgG, kappa light chain; also called clone #49
As for B5, in test [1], the binding result is on record as “binds”. Moreover, the “inhibition … recombinant antibody” value in test [2] came out at 59.9 % inhibition.

B6: antibody 34 (antibody, V domains shown)
VH: QVTLKESGPGILQPSQTLSLTCSFSGFSLSTFSLGVGWIRQSSGKGLEWLAHIWWDDEKYYNPALKSRLTISKDTSKNQVFLKIANVDAADTATYYCARAYYSKSYYALDYWGQGTSVTVSS
VL: DIQMTQSPSSLSASLGERVSLTCRASQEISGYLSWLQQKPDGTIKRLIYAASTLDSGVPKRFSGSRSGSDYSLAISSLESEDFADYYCLQYANFPFTFGSGTKLEIK
notes: Mouse IgG, kappa light chain; also called clone #34; m34
B6: in test [1], the binding result was “binds”. Moreover, in test [2], the “inhibition of LPS-induced release of TNFα from THP-1 cells, 10 µg/ml, antibody purified from hybridoma” value amounted to 27.3 % inhibition; the “inhibition … recombinant antibody” value was 73.8 % inhibition; the “inhibition of PMA-induced release of HB-EGF from THP-1 cells, 3 µg/ml” value was 64.2 % inhibition; the “inhibition of PMA-induced release of HB-EGF from U-937 cells” value amounted to 98.2 % inhibition. Moreover, in test [2], the “inhibition of PMA-induced release of IL-6R from THP-1 cells, 1 µg/ml” value is 71.1 % inhibition; the “inhibition of PMA-induced release of IL-6R from U-937 cells, 1 µg/ml” value is 69.3 % inhibition; the “inhibition of PMA-induced release of IL-6R from U-937 cells, 3 µg/ml” value turned out to be 74.6 % inhibition; the “inhibition of PMA-induced release of TNFα from U-937 cells, 1 µg/ml” value was 68.6 % inhibition. Further, in test [2], the “inhibition of PMA-induced release of TNFα from U-937 cells, 3 µg/ml” value amounted to 79.9 % inhibition.
